Results from patent US20230375528.
pKi: −log10 of the molar value.

Experiments:
[1] = molecular target: ENO1 wild type (Enolase 1) (Homo sapiens) (UniProt P06733); test: EMSA
[2] = molecular target: ENO1down (ENO1-K343A) (Homo sapiens) (UniProt P06733); test: EMSA; settings: competition EMSA
Sequence of ENO1down (ENO1-K343A) (Homo sapiens) (P06733 whole entry K343A): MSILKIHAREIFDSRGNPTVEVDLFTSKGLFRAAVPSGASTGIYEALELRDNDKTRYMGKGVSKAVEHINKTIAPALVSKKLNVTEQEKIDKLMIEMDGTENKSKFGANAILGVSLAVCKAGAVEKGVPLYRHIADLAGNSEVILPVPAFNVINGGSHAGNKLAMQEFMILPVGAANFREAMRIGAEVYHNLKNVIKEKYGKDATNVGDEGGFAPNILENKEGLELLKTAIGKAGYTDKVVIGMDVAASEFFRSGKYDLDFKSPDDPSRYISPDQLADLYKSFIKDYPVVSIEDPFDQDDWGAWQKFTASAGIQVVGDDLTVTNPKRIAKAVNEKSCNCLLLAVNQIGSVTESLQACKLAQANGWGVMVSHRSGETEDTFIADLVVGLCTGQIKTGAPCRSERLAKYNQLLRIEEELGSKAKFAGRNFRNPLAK

Sequence of ENO1 wild type (Enolase 1) (Homo sapiens) (P06733 2-434): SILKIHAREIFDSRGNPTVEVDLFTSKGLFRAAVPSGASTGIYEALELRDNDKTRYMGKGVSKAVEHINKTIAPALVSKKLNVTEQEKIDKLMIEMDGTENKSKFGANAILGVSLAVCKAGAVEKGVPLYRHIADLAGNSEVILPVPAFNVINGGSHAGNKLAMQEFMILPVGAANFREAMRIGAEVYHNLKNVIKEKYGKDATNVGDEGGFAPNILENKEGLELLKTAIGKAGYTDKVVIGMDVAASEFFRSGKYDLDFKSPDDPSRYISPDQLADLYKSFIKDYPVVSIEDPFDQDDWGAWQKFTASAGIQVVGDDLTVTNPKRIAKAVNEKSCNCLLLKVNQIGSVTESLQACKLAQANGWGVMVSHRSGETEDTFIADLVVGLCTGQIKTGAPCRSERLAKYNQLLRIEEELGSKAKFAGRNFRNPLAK

## PABPC1 5'UTR target 35-mer RNA
[1]; competition EMSA with labelled PABPC1 target 35-mer probe
  pKi: 7.57
[2]; about 5-10-fold decreased RNA binding vs wt
  pKi: 6.65

## PABPC1 control 35-mer RNA (GC-matched, downstream of binding site)
[1]; competition EMSA with labelled PABPC1 target probe
  pKi: 5.59
[2]
  pKi: 5.49
